According to patent US20240239886A1 (YEDA RESEARCH AND DEVELOPMENT, published 2024):
Where a chain is given by its changes, count along the chain named. Where two headings read alike, the source gives them in different places.

B1: 83E10B12 (antibody, V domains shown)
VH: QVQLQESGPELVKPGASVKISCKASGYIFSYSWMNWVKQRPGKGLEWIGRIYPGDGDADYNGKFKGKATLTADKSSNTAYMQLTSLTSEDSAVYFCARLHIYDGYYVSVYWGQGTLVTVSA
VL: DIQMTQTTSCLSASLGDRVTISCRASQDINNYLSWYQQKPDGTVKLLIYYTSKLHSGVPSRFSGSGSGTDYSLTIGNLEQEDVATYFCQQGDTLPWTFGGGTRLEIK
notes: Biotin conjugated in sup ELISA, cell-based ELISA and flow cytometry
B2: 80E3C7 (antibody, V domains shown)
VH: QVQLQQPGAEPLKPGASVKMSCEASGYTFTNFWITWMKLRPGQGLEWIGDIYPGTGNTNYNEKFKSRATLTVDTSSTTAYMQLSSLTSEDSAVYYCAREAYYTNPGFAYWGHGTLVTVSA
VL: DVLMTQSPLSLPVNLGDQASISCKSSQNIVHSNGNTYLEWYLQRPGQSPKLLIYKVSNRFSGVPDRFSGSGSGTDFTLKISRVEAEDLGVYYCFQGSHVPYTFGGGTKLEIK
notes: Biotin conjugated in sup ELISA, cell-based ELISA and flow cytometry; also called anti-TREM2 antibody (E3C7); TREM2 Ab E3C7
B3: 54H2C1 (antibody, V domains shown)
VH: B2 VH with K13T, M37V, T55S
VL: B2 VL with V90L
notes: as for B1
B4: 61B11C9 (antibody, V domains shown)
VH: QLQESGPEQVKPGASVKMSCRTSGYTFTAYNMHWVKQRLGKSLEWIGYIRPTNGDTRYNRRFRDKATLTVDKSSSTTYMELRSLTSEDSAVYYCTRSTTVASFDYWGQGTTLTVSS
VL: DIVMTQTTSSLTVSVGQKITLNCKSSQSLLYTNNQKNFLAWYQQKPGQSPKLLIYWASTRDSGVPDRFTGSGSGTDFTLTITSVMAEDLAVYFCQQYYDFPPTFGGGTKLEIK
notes: as for B1
B5: 60H4A3 (antibody, V domains shown)
VH: EVQLQESGPELVKPGASVKMSCKASGYTFTDYNMHWVKQSHGKSLEWIGYIYPNNGGTGYNQKFKGKATLTVNKSSSTAYMELRSLTSEDSAVYYCARSGRGFAYWGQGTLVTVSA
VL: DIVMTQSPASLSVTPGDRVSLSCRASQSISDYLHWYQQKSHESPRLLIKYASQSISGIPSRFSGSGSGSDFTLSINSVEPEDVGVYYCQNGHSFPYTFGGGTKLEIK
notes: as for B1
B6: 60H4G2 (antibody, V domains shown)
VH: B5 VH
VL: DIVMTQSTSSLTVTAGEKVTMSCKSSQSLLNSGNQKNYLTWYQQKPGQPPKLLIYWASSRESGVPDRFTGRGSGTDFTLTISSVQAEDLAVYYCQNDYSYPFTFGSGTKLEIK
notes: as for B1

Columns and labels:
[1] = biological target: T1, recombinant protein consisting of the extracellular domain of human TREM2 fused to the His tag (human, UniProt Q9NZC2 19-174); assay: direct ELISA; highest dilution with S/B >= 2.1
T1 construct: also called His tagged hTREM2; His-TREM2
T1 sequence: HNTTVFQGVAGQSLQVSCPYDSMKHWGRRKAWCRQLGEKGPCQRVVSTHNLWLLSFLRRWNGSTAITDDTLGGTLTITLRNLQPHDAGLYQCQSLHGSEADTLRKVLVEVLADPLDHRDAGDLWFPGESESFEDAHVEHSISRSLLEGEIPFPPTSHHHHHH
Experimental: (§1) Ninety six-Well ELISA microplate was coated with 0.5 μg/mL, 100 μl/well His tagged hTREM2 diluted in PBS pH 7.4, and incubated at 4° C. overnight. The plate was rinsed three times with 0.05% tween20 in PBS, blocked with 1% BSA in PBS at room temperature (RT) for 1 hr, and rinsed again. The plates was incubated with the anti hTREM2 antibodies (100 μl/well) for 2 hrs at indicated concentration, at RT. Plate was rinsed and incubated with Peroxidase-AffiniPure Goat anti Mouse IgG, Fcg fragment specific (min X Hu, Bov, Hrs, Sr Prot; Jackson ImmunoResearch) for 20 min at RT. The plate was rinsed and incubated with TMB Reagent (TM4500, Scytek) for 20 min at RT, followed by the addition of Stop Solution 2N Sulfuric Acid (DY994, R&D). OD was measured using an ELISA plate reader at dual wavelengths (450 nm and 570 nm)
(§2) Purity is measured by SDS-PAGE. Quantity of endotoxin (EU/mg) is measured by LAL assay. Titer measured by direct ELISA, while the title value is the highest dilution with S/B (Signal/Blank) >= 2.1

[2] = biological target: T1, recombinant protein consisting of the …; assay: direct ELISA
Experimental: as §1

[3] = biological target: T2, soluble TREM2 protein (human, UniProt Q9NZC2 19-157); assay: sup ELISA, hTREM2 vs WT 293HEK supernatant
T2 construct: also called TREM2 in cell culture supernatant (Sup)
T2 sequence: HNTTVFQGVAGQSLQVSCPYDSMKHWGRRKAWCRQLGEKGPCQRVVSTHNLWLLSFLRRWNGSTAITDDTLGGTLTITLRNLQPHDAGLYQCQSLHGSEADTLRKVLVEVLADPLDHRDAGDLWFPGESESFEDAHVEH
Experimental: Supernatant was collected, centrifuged for 5 min at 900 g and filtered (0.45 μm). Ninety six-well ELISA microplate was coated with 0.2 μg/well of anti human TREM2 Antibody (AF1828, R&D) diluted in PBS, and incubated at 4° C. overnight. The plate was rinsed three times with 0.05% tween20 in PBS, blocked with 1% BSA in PBS at room temperature (RT) for 1 hr, and rinsed again. The plates was incubated with the cell culture supernatant (100 μl/well) for 2 hrs at RT for and rinsed again. The plate was incubated with 0.1 μg biotinylayed anti hTREM2 antibodies for 2 hrs at RT. After incubation, the plate was rinsed and incubated with streptavidin-HRP (DY998, R&D) for 20 min at RT. The plate was rinsed and incubated with TMB Reagent (TM4500, Scytek) for 20 min at RT, followed by the addition of Stop Solution 2N Sulfuric Acid (DY994, R&D). OD was measured using an ELISA plate reader at dual wavelengths (450 nm and 570 nm)
(§3) A. Cells culture supernatant (Sup) was used for soluble TREM2 protein binding capability test of 18 hybridoma derived monoclonal antibodies by direct ELISA. B. Cells were captured in 96 wells plate and were used for cell based ELISA of 18 hybridoma derived monoclonal antibodies. OD values positive cells (hTREM2 expressing HEK293) and negative cells (WT HEK293) are showing in the table.

[4] = biological target: T1, recombinant protein consisting of the …; assay: direct ELISA, coated His-TREM2 0.5 ug/mL, Ab stock 1 mg/mL
Experimental: as §1

[5] = biological target: T3, recombinant protein consisting of the extracellular domain of human TREM2 fused to the His tag (UniProt Q9NZC2 19-174); assay: SPR
T3 chain: T1 sequence

[6] = biological target: T4, human TREM2 (hTREM2) on cells (human, UniProt Q9NZC2 19-230); assay: cell-based ELISA, hTREM2 vs WT 293HEK cells
T4 construct: also called hTREM2 expressing HEK293
T4 sequence: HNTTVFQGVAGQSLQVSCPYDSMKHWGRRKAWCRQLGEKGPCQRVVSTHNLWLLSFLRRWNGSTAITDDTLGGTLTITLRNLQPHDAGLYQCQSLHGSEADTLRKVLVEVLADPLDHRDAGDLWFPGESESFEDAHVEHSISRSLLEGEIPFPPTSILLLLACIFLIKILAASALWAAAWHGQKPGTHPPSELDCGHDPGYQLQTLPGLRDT
Experimental: Cells were washed three times with PBS and blocked (5% FBS, 1% BSA in PBS) for 2 hrs at RT. Cells were washed with 1% BSA in PBS and were incubated with 0.1 ug (or indicated amount) obiotinylayed anti hTREM2 antibodies for 4 hrs at RT. After incubation, cells were incubated with streptavidin-HRP (DY998, R&D) for 20 min at RT. The cells were washed and incubated with TMB Reagent (TM4500, Scytek) for 30 min at RT, followed by the addition of Stop Solution 2N Sulfuric Acid (DY994, R&D). OD was measured using an ELISA plate reader at dual wavelengths (450 nm and 570 nm). Biotinylation of Antibodies was done using EZ-Link™ Sulfo-NHS-LC-Biotinylation kit (Thermo Fisher Scientific) according to manufacturer's instructions.
as §3

[7] = biological target: T4, human TREM2 (hTREM2) on cells; assay: flow cytometry on BMDM
Experimental: TREM2 KO and hTREM2 BMDM were washed with MACS buffer (PBS pH 7.2, 0.5% BSA and 2 mM EDTA) and stained with biotin conjugated anti hTREM2 antibodies (10 μg/mL) followed by Washing with MACS buffer and APC-streptavidin (Biolegend, 405207) incubation, then analyzed by flow cytometer (LSRII, BD).

[8] = biological target: T1, recombinant protein consisting of the …; assay: direct ELISA; highest dilution with S/B >= 2.1; remark: listed apart in the source
Experimental: as §1, §2

Binder | Titer [1] | direct ELISA positive/negative [2] | sup ELISA positive/negative (293HEK) [3] | OD at dilution 1000 [4] | OD at dilution 3000 [4] | OD at dilution 9000 [4] | OD at dilution 27000 [4] | OD at dilution 81000 [4] | OD at dilution 243000 [4] | OD at dilution 729000 [4] | OD at dilution 2187000 [4] | OD at dilution 6561000 [4] | OD at dilution 19683000 [4] | Kd [5] | Cell based ELISA positive/negative [6] | FACS positive/negative BMDM [7] | Titer [8]
B1 | 243000 dilution | 34.8 ratio | 27.9 ratio | 2.59 OD | 2.49 OD | 1.98 OD | 0.843 OD | 0.375 OD | 0.179 OD | 0.099 OD | 0.068 OD | 0.07 OD | 0.053 OD | 32.1 pM | 1.91 ratio | 2.58 ratio | 243000 dilution
B2 | 2.19e+06 dilution | 33.4 ratio | 24.9 ratio | 2.02 OD | 2.12 OD | 2.16 OD | 1.76 OD | 1.2 OD | 0.608 OD | 0.281 OD | 0.145 OD | 0.092 OD | 0.085 OD | 0.0275 pM | 2.8 ratio | 1.87 ratio | 2.19e+06 dilution
B3 | 729000 dilution | 33.9 ratio | 25.1 ratio | 1.4 OD | 1.35 OD | 1.18 OD | 0.967 OD | 0.586 OD | 0.276 OD | 0.147 OD | 0.106 OD | 0.087 OD | 0.069 OD | 399 pM | 2.69 ratio | 2.72 ratio | 729000 dilution
B4 | 2.19e+06 dilution | 35.1 ratio | 3.05 ratio | 2.75 OD | 2.76 OD | 2.88 OD | 2.58 OD | 1.92 OD | 0.985 OD | 0.405 OD | 0.169 OD | 0.099 OD | 0.066 OD |  | 2.46 ratio | 1.47 ratio | 2.19e+06 dilution
B5 | 2.19e+06 dilution | 31.5 ratio | 11 ratio | 1.84 OD | 1.8 OD | 1.9 OD | 1.63 OD | 1.16 OD | 0.763 OD | 0.322 OD | 0.17 OD | 0.113 OD | 0.063 OD |  | 1.89 ratio | 1.78 ratio | 2.19e+06 dilution
B6 | 729000 dilution | 27.4 ratio | 10 ratio | 1.83 OD | 1.89 OD | 1.69 OD | 1.31 OD | 0.849 OD | 0.432 OD | 0.222 OD | 0.133 OD | 0.102 OD | 0.067 OD |  | 1.38 ratio | 1.16 ratio | 729000 dilution
